For one assay, the target named is human GLP-1 receptor (human, UniProt P43220 24-463). Put plainly: cell-based or functional assay.
For assay [1], the target named is T1, human serum albumin (HSA) (human, UniProt P02768 25-609, biotinylated).
T1 construct: also called biotinylated HSA
Put plainly: competition SPA on biotinylated HSA beads; competitor 125I-labelled acylated GLP-1 analogue.

Assay [2] concerns the target isolated N-terminal extracellular domain of the GLP-1R receptor (nGLP-1R) (UniProt P43220). Put plainly: SPA; displacement of 125I-Exendin-4(9-39) from biotinylated nGLP-1R.

Where a chain is given by its changes, count along the chain named. *1 amine or outer side, *2 acyl side, *3 side chain or, on linkers, in order; H or OH if unused. Where no end group is shown, it is not given here. Side-chain parts run from the residue outwards. [ ]: non-standard residue; d: D form. The star is where a group is joined. C20 diacid = O=C(O)CCCCCCCCCCCCCCCCCCC(=O)*; C18 diacid = O=C(O)CCCCCCCCCCCCCCCCC(=O)*; C16 diacid = O=C(O)CCCCCCCCCCCCCCC(=O)*; γGlu = O=C(O)[C@H](CCC(=O)[*:2])N[*:1]; Desaminohistidyl = O=C(CCc1c[nH]cn1)*; βAsp = O=C(O)[C@H](CC(=O)[*:2])N[*:1]; Palmitoyl = CCCCCCCCCCCCCCCC(=O)*; Trx = NC[C@H]1CC[C@H](C(=O)O)CC1; Dap = NC[C@H](N)C(=O)O; AEEA = NCCOCCOCC(=O)O; Aib = CC(C)(N)C(=O)O; Inp = O=C(O)C1CCNCC1 Some results are limits rather than exact numbers.

Chain of human GLP-1 receptor (P43220 24-463): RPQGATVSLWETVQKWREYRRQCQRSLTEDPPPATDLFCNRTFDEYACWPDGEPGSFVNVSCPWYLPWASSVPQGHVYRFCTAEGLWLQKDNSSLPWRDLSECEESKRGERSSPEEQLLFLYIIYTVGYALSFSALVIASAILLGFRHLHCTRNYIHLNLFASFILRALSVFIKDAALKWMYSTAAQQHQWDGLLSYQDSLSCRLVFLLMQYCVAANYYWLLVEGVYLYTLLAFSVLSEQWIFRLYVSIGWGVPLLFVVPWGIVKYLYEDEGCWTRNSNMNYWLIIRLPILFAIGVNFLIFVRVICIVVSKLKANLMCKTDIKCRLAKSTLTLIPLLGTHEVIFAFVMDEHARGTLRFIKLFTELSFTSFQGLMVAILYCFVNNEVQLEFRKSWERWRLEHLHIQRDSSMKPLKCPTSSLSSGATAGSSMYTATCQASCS
Chain of isolated N-terminal extracellular domain of the GLP-1R receptor (nGLP-1R) (P43220 24-145 limits assumed): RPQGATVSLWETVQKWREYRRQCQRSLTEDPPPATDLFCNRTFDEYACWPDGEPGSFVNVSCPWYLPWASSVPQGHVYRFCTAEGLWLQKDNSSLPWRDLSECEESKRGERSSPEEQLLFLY

In the assay with human GLP-1 receptor, “N-epsilon31{2-(2-{2-[2-(2-{2-[4-Carboxy-4-(17-carboxy-heptadecanoylamino)butyrylamino]ethoxy}ethoxy)acetylamino]ethoxy}ethoxy)acetyl}-[Aib8,Glu22,Val25,Arg26,Lys31,Arg34,Arg35,Arg37)]GLP-1(7-37)yl [Arg39,Arg40,Arg41] (peptide)” returned a Potency [EC50/nM], cAMP formation of 0.74 nM. Moreover, the EC50 in assay [1] came out at 800 nM.

Molecule Liraglutide (peptide) gave a Potency [EC50/nM], cAMP formation with human GLP-1 receptor of 0.1 nM. The molecule further showed an IC50 in assay [2] of 1500 nM.

B1: N-epsilon31-[2-(2-{2-[2-(2-{2-[(S)-4-Carboxy-4-(17-carboxyheptadecanoylamino)butyrylamino]ethoxy}ethoxy)acetylamino]ethoxy}ethoxy)acetyl][Aib8,Glu22,Val25,Arg26 … (peptide)
peptide: H[Aib]EGTFTSDVSSYLEEQAVREFIAK([AEEA-AEEA-γGlu-C18 diacid])LVKKK-NH2
modifications: N-terminus assumed
SMILES: CC[C@H](C)[C@H](NC(=O)[C@H](Cc1ccccc1)NC(=O)[C@H](CCC(=O)O)NC(=O)[C@H](CCCNC(=N)N)NC(=O)[C@@H](NC(=O)[C@H](C)NC(=O)[C@H](CCC(N)=O)NC(=O)[C@H](CCC(=O)O)NC(=O)[C@H](CCC(=O)O)NC(=O)[C@H](CC(C)C)NC(=O)[C@H](Cc1ccc(O)cc1)NC(=O)[C@H](CO)NC(=O)[C@H](CO)NC(=O)[C@@H](NC(=O)[C@H](CC(=O)O)NC(=O)[C@H](CO)NC(=O)[C@@H](NC(=O)[C@H](Cc1ccccc1)NC(=O)[C@@H](NC(=O)CNC(=O)[C@H](CCC(=O)O)NC(=O)C(C)(C)NC(=O)[C@@H](N)Cc1c[nH]cn1)[C@@H](C)O)[C@@H](C)O)C(C)C)C(C)C)C(=O)N[C@@H](C)C(=O)N[C@@H](CCCCNC(=O)COCCOCCNC(=O)COCCOCCNC(=O)CC[C@H](NC(=O)CCCCCCCCCCCCCCCCC(=O)O)C(=O)O)C(=O)N[C@@H](CC(C)C)C(=O)N[C@H](C(=O)N[C@@H](CCCCN)C(=O)N[C@@H](CCCCN)C(=O)N[C@@H](CCCCN)C(N)=O)C(C)C
notes: GLP-1(7-36) = residues 1-30 of the entry
Take B1: the “Potency [EC50/nM], cAMP formation” value in the assay with human GLP-1 receptor was determined as 0.14 nM. Further, in assay [1], the EC50 is 400 to 800 nM.

B2: [Aib8,Glu22,Arg26,Glu30,Pro37]GLP-1-(7-37)Lys … (peptide)
peptide: H[Aib]EGTFTSDVSSYLEEQAAREFIEWLVKGRPK
modifications: not fully specified (residue 32); printed as [Aib8,Glu22,Arg26,Glu30,Pro37]GLP-1-(7-37)Lys [2-(2-{2-[4-Carboxy-4-(4-carboxy-4-{4-[4-(16-1H-tetrazol-5-yl-hexadecanoylsulfamoyl)butyrylamino]butyrylamino}butyrylamino)butyrylamino]ethoxy}ethoxy)acetyl]
As to B2, the “Potency [EC50/nM], cAMP formation” value in the assay with human GLP-1 receptor is 0.29 nM. Also, the EC50 in assay [1] was 150 to 200 nM.

Turning to H[Aib]EGTFTSDVSSYLEEQAAREFIEWLVKGK([AEEA-AEEA-C18 diacid])GE-NH2, the “Potency [EC50/nM], cAMP formation” value with human GLP-1 receptor worked out at 0.22 nM. In assay [1], this molecule showed an EC50 of 200 to 400 nM.

Turning to H[Aib]EGTFTSDVSSYLEEQAAREFIAWLVR[Aib]RK([AEEA-AEEA-γGlu-C18 diacid]), in the assay with human GLP-1 receptor, the “Potency [EC50/nM], cAMP formation” value was 0.06 nM. Also, the EC50 in assay [1] lay in the range of 100 to 150 nM.

On to H[Aib]EGTFTSDVSSYLEEQAAREFIAK([AEEA-AEEA-βAsp-Inp-C20 diacid])LVRGRG, for which, in the assay with human GLP-1 receptor, the “Potency [EC50/nM], cAMP formation” value is 0.18 nM. Besides, the EC50 in assay [1] fell in the range of 200 to 400 nM.

For H[Aib]EGTFTSDVSSYLEEQAAREFIK([AEEA-AEEA-βAsp-Inp-C20 diacid])WLVKGRG, the “Potency [EC50/nM], cAMP formation” value with human GLP-1 receptor worked out at 0.52 nM. The EC50 in assay [1] was 200 to 400 nM.

For H[Aib]EGTFTSDVSSYLEEQAVREFIAK([AEEA-AEEA-γGlu-C18 diacid])LVRRRR, the “Potency [EC50/nM], cAMP formation” value in the assay with human GLP-1 receptor came to 1.27 nM. Also, in assay [1], the EC50 was > 2000 nM.

B3: N-epsilon31-{2-(2-{2-[2-(2-{2-[4-Carboxy-4-(17-carboxy-heptadecanoylamino)butyrylamino]ethoxy}ethoxy)acetylamino]ethoxy}ethoxy)acetyl}-N-beta34-(2-(bis-carboxym … (peptide)
peptide: H[Aib]EGTFTSDVSSYLEEQAVREFIAK([AEEA-AEEA-γGlu-C18 diacid])LV[Dap](2‑(bis-carboxymethylamino)acetyl)-NH2
notes: GLP-1(7-34) = residues 1-28 of the entry
In the case of B3, the “Potency [EC50/nM], cAMP formation” value in the assay with human GLP-1 receptor was 0.34 nM. This molecule returned an EC50 in assay [1] of 150 to 200 nM.

B4: N-epsilon37-{2-(2-(2-(2-[2-(2-(4-(hexadecanoylamino)-4-carboxybutyrylamino)ethoxy)ethoxy]acetyl)ethoxy)ethoxy)acetyl)}-[desaminoHis7,Glu22,Arg26, … (peptide)
peptide: [Desaminohistidyl]AEGTFTSDVSSYLEEQAAREFIEWLVRGRK([AEEA-AEEA-γGlu-Palmitoyl])-NH2
SMILES: CCCCCCCCCCCCCCCC(=O)N[C@@H](CCC(=O)NCCOCCOCC(=O)NCCOCCOCC(=O)NCCCC[C@H](NC(=O)[C@H](CCCNC(=N)N)NC(=O)CNC(=O)[C@H](CCCNC(=N)N)NC(=O)[C@@H](NC(=O)[C@H](CC(C)C)NC(=O)[C@H](Cc1c[nH]c2ccccc12)NC(=O)[C@H](CCC(=O)O)NC(=O)[C@@H](NC(=O)[C@H](Cc1ccccc1)NC(=O)[C@H](CCC(=O)O)NC(=O)[C@H](CCCNC(=N)N)NC(=O)[C@H](C)NC(=O)[C@H](C)NC(=O)[C@H](CCC(N)=O)NC(=O)[C@H](CCC(=O)O)NC(=O)[C@H](CCC(=O)O)NC(=O)[C@H](CC(C)C)NC(=O)[C@H](Cc1ccc(O)cc1)NC(=O)[C@H](CO)NC(=O)[C@H](CO)NC(=O)[C@@H](NC(=O)[C@H](CC(=O)O)NC(=O)[C@H](CO)NC(=O)[C@@H](NC(=O)[C@H](Cc1ccccc1)NC(=O)[C@@H](NC(=O)CNC(=O)[C@H](CCC(=O)O)NC(=O)[C@H](C)NC(=O)CCc1c[nH]cn1)[C@@H](C)O)[C@@H](C)O)C(C)C)[C@@H](C)CC)C(C)C)C(N)=O)C(=O)O
As for B4, the “Potency [EC50/nM], cAMP formation” value in the assay with human GLP-1 receptor amounted to 0.16 nM.

Consider [Desaminohistidyl]AEGTFTSDVSSYLEEQAAREFIEWLVRGRK([AEEA-AEEA-γGlu-Trx-C20 diacid]), for which, in the assay with human GLP-1 receptor, the “Potency [EC50/nM], cAMP formation” value was 0.66 nM.

B5: N-alpha37-[2-(2-{2-[2-(2-{2-[(S)-4-Carboxy-4-(17-carboxy-heptadecanoylamino)-butyrylamino]-ethoxy}-ethoxy)-acetylamino]-ethoxy}-ethoxy)-acetyl][Aib8,Glu22,Arg26 … (peptide)
peptide: HXEGTFTSDVSSYLEEQAAREFIAWLVRGRK
modifications: not fully specified; Aib at 8; Lys37 is bound to the peptide through its epsilon amino group (epsilon-Lys37) and acylated at N-alpha with the side chain given in the name
Turning to B5, in the assay with human GLP-1 receptor, the “Potency [EC50/nM], cAMP formation” value is 0.08 nM. For the same molecule, the EC50 in assay [1] is 200 to 400 nM.

B6: N-epsilon37-[2-(2-[2-(2-[2-(2-((R)-3-[1-(17-Carboxyheptadecanoyl)piperidin-4-ylcarbonylamino]3-carboxypropionylamino)ethoxy)ethoxy]acetylamino)ethoxy]ethoxy)ace … (peptide)
peptide: B5 peptide with H1X, X2A, F22X
modifications: desamino-histidine at 7; m-CF3-phenylalanine at 28; residue 37 acylated at N-epsilon with the side chain given in the name; C-terminal amide
For B6, the “Potency [EC50/nM], cAMP formation” value with human GLP-1 receptor was found to be 0.35 nM. Further, the EC50 in assay [1] lay within 1500 to 2000 nM.

[Desaminohistidyl]AEGTFTSDVSSYLEEQAAREFIEWLVRGRGEK([AEEA-AEEA-γGlu-C18 diacid]) [[desaminoHis7, Glu22, Arg26, Glu30, …]: the “Potency [EC50/nM], cAMP formation” value with human GLP-1 receptor turned out to be 0.04 nM. This molecule yielded an EC50 in assay [1] of 1500 to 2000 nM.

Take [Desaminohistidyl]AEGTFTSDVSSYLEEQAAREFIEWLVRGK([AEEA-AEEA-γGlu-C16 diacid])GEK: the “Potency [EC50/nM], cAMP formation” value with human GLP-1 receptor turned out to be 0.21 nM. Besides, the EC50 in assay [1] was > 2000 nM.

These data come from US20110082079A1 (Novo Nordisk, published 2011).
